Measured values: paper PMC11344771, “The Chlamydia pneumoniae effector SemD exploits its host’s endocytic machinery by structural and functional mimicry” (Nature Communications, 2024)

B1: SNX9-SH3 (domain or fragment)
chain: MATKARVMYDFAAEPGNNELTVNEGEIITITNPDVGGGWLEGRNIKGERGLVPTDYVEILPS
B2: Cdc42 bound to a non-hydrolysable GTP analogue (Cdc42_(GppNHp)) (natural protein)
chain: not shown
notes: human CDC42 in pGEX-4T-1; also called Cdc42_(mGppNHp); active Cdc42; source: E. coli Rosetta, purified (Glutathione sepharose, thrombin cleavage), loaded with GppNHp or mGppNHp

Columns and labels:
SemDΔAPH_(67-382) = target: T1, SemDΔAPH_(67-382) (Chlamydia pneumoniae); test: SEC-SAXS; Superdex200 increase 10/300 GL, PBS pH 8.5 + 3 % glycerol, 20 °C; 8 mg/ml SemDΔAPH, 10 mg/ml BR-GBD, 8 mg/ml SemDΔAPH + BR-GBD, 3.3 mg/l SemDΔAPH + SNX9-SH3; conditions: both partners purified
T1 construct: SemD of Chlamydia pneumoniae (382 aa), N-terminally truncated up to and including the APH motif; residues 67-382 (G67-E382); from synthetic semD DNA codon optimised for E. coli; Monomer in solution by SAXS; also called SemDΔAPHHis; source: E. coli BL21 (DE3), purified (Ni-NTA Agarose, SEC); not shown: 10xHis, C-terminal, kept

[1] = target: T2, BR-GBD fused to GFP (BR-GBD_(GFP-His)) (Rattus norvegicus, UniProt O08816 142-273); test: pull-down; GFP-Trap agarose, BR-GBD_(GFP-His) or GFP alone as bait, equimolar test protein, 5 min RT then 30 min 4 °C, washed 6x with 10 mM Tris-HCl, 200 mM NaCl, pH 8.5; immunoblot, Elution:FT ratio normalised to the bait; conditions: both partners purified
T2 construct: amplified from GFP-N-WASP (Addgene #47406), in pDS94; source: E. coli BL21 (DE3), purified (Ni-NTA Agarose); not shown: GFP, C-terminal, kept; 10xHis, C-terminal, kept
T2 sequence (O08816 142-273): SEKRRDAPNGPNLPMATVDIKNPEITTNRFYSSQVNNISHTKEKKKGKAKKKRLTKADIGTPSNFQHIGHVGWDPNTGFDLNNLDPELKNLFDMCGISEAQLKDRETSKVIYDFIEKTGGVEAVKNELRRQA

Binder	stoichiometry N (SemDΔAPH_(67-382))	normalised Elution:FT ratio [1] [%]
B1	1	
B2		~100
